Measured values reported in US20240391977A1.

Target: human TPOR (thrombopoietin receptor, c-Mpl) expressed on BaF3/c-Mpl cells (human) (UniProt P40238)
Assay: cell-based or functional assay

**Q.** How did the EC50 (ng/ml), growth of BaF3/c-Mpl cells by CCK-8 assay; Nplate® turn out when Romiplostim (Nplate®) (Fc fusion) was run?
**A.** The EC50 (ng/ml), growth of BaF3/c-Mpl cells by CCK-8 assay; Nplate® was 8.78 ng/mL.
